In US7867500B2, “Cofactor that modulates steroid receptor activities” (The United States of America as represented by the …, priority 2004, dated 2011):
Values belong to the molecule of their own block, whether it stands above or below them.

Target: T1, GR (Rattus norvegicus, UniProt P06536)
T1 construct: plus VP16 fused to the indicated full length receptors; expressed in transfected cells; host or cells: CV-1
T1 sequence (P06536 1-795): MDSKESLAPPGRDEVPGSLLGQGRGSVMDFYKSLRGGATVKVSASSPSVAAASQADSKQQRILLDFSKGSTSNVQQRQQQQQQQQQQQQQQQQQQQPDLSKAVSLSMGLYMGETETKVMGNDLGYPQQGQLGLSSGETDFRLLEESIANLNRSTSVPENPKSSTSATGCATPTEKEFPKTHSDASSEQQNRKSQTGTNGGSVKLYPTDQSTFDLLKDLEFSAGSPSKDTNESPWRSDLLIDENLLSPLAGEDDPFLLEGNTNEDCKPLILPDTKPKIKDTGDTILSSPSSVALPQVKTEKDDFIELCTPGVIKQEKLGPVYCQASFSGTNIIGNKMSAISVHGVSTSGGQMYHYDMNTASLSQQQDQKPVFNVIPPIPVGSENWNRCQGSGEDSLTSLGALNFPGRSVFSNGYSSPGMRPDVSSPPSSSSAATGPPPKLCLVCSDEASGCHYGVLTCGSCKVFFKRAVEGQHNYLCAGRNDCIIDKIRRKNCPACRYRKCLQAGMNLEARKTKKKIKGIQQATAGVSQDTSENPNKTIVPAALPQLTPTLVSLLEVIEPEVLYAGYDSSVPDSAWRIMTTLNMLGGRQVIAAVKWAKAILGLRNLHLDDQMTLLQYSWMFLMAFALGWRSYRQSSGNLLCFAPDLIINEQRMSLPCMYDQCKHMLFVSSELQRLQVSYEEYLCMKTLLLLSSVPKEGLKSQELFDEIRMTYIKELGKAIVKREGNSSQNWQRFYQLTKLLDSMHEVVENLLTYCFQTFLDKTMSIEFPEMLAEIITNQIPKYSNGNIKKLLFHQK
Assay: Mammalian two-hybrid assay in CV-1 cells with VP16/GR
Type: cell-based
Conditions: VP16/GR ± 1 μM Dex
Excerpt: FIGS. 6A and 6B illustrate the domains of STAMP that interact with TIF2.4 (FIG. 6A) and GR (FIG. 6B) in the mammalian two-hybrid assay. […] These CV-1 cells were also transfected with GAL fused to the indicated segments of STAMP along with the FRLuc reporter and Renilla control plasmids. After determining the relative luciferase activities as described in FIG. 2B and 2C, the average values±S.E.M. from 2-5 experiments were plotted. The average fold increase for VP16/TIF2.4 with GAL/STAMP(623-834) in FIG. 6A was 11.0±3.0 (SEM, n=5) above the VP16 control. The values in parentheses above the data bars in FIG. 6B indicate the fold increased interaction ±1 μM Dex.
These assays were conducted as described (He et al., 2002). In particular, the recommended procedure for the Mammalian Matchmaker two-hybrid assay kit (Clontech) was modified slightly by changing from a chloramphenicol acetyltransferase reporter to a Luciferase Reporter pFRLuc (Stratagene), which is under the control of five repeats of the upstream activating sequence for the binding of GAL4.

interaction with GR: largest agonist-induced changes
B1: STAMP834C: STAMP fragment amino acids 834-1277, receptor interaction domain (RID) (protein)
chain: GDHPETIMEEVKIKPPKQQQTTEIHSDKLSRFTTSAEKEAKLVYSNSSSGPTATLQKIPNTHLSSVTTSDLSPGPCHHSSLSQIPSAIPSMPHQPTILLNTVSASASPCLHPGAQNIPSPTGLPRCRSGSHTIGPFSSFQSAAHIYSQKLSRPSSAKAGSCYLNKHHSGIAKTQKEGEDASLYSKRYNQSMVTAELQRLAEKQAARQYSPSSHINLLTQQVTNLNLATGIINRSSASAPPTLRPIISPSGPTWSTQSDPQAPENHSSSPGSRSLQTGGFAWEGEVENNVYSQATGVVPQHKYHPTAGSYQLQFALQQLEQQKLQSRQLLDQSRARHQAIFGSQTLPNSNLWTMNNGAGCRISSATASGQKPTTLPQKVVPPPSSCASLVPKPPPNHEQVLRRATSQKASKGSSAEGQLNGLQSSLNPAASVPITSSTDPAHTKI

interaction with GR: relative inactivity
B2: 6-6CL1: STAMP fragment amino acids 623-834, coactivator interaction domain (CID) (protein)
chain: ENTPKENSMKVREWNNKGGHCCKLETQELEPKFNLMQILQDNGNLSKMQARIAFSAYLQHVQIRLMKDSGGQTFSASWAAKEDEQMELVVRFLKRASNNLQHSLRMVLPSRRLALLERRRILAHQLGDFIIVYNKETEQMAEKKSKKKVEEEEEDGVNMENFQEFIRQASEAELEEVLTFYTQKNKSASVFLGTHSKISKNNNNYSDSGAKG
